# Results published in the DeepSol protein solubility set.
# Experiment: soluble on expression in E. coli; label from the status in PepcDB or PDB records
row,Sequence,soluble on expression in E. coli
1,MRGSHHHHHHGMASMTGGQQMGRDLYDDDDKMSVIKPEMKMKYFMDGSVNGHEFTVEGEGTGKPYEGKHKITLDVTKGGPLPFAFDLLSTVFSYGNRCLTKYPDDIPDYFKQCFPGGYSWERKFEFEDGGLAIAKAEISLKGNCFEHKSTIEGTFPDSSPIAQNKTLGWEPSTEKMTVRDGSMKGDDAAYLKLVGGGNHKCYFTTTYTAKKKIPNLPQSHFIGHRISSVVNGTKIGVMEDAIAHLYPFNGVPCQ,soluble
2,MIELKHVTFGYNKKQMVLQDINITIPDGENVGILGESGCGKSTLASLVLGLFKPVKGEIYLSDNAVLPIFQHPLTSFNPDWTIETSLKEALYYYRGLTDNTAQDQLLLQHLSTFELNAQLLTKLPSEVSGGQLQRFNVMRSLLAQPRVLICDEITSNLDVIAEQNVINILKAQTITNLNHFIVISHDLSVLQRLVNRIIVLKDGMIVDDFAIEELFNVDRHPYTKELVQAFSY,not soluble
3,MGSDKIHHHHHHMLPLVKLIRGQDNTIVEADLVELWQKHVDDYANKWKEQLKLHGQSDKFWDWEFKLEFIINRQANREGFAIEYEDETQGLMLIETQMHGSRLVEGKRLVYIDGIATAPWNRAYIQRPPKLKGVGTAFLAFARTRSLELGYEGRVGLHSLPGVEEFYDNQGMIDVGEDEDYDDLVYFEYGVFRSPV,not soluble
4,MRSDGRKEDQLRPVSIQRDFLEYPEGSCLISFGKTKVICTASVIENVPNWLKGKGQGWITAEYSMLPRATQQRTIRESVQGRIGGRTHEIQRMIGRAMRTAVELTKIGERTIWVDCDVIQADGGARTAAITGAFVAVADAIIKLHKEGIIEETPIKDFVAAVSVGIVNDRILLDLNFEEDSAAQVDMNVVGTGSGRLSEVHTMGEEYSFTKDELIKMLDLAQKGINELIELQKKLYVIQDGKWERSELKEVSSTT,soluble
5,RTGFSVGAGVEYNFSRHWAIQSGLMITSKGATAEYEGYSPLSSSTDPISYKAKISPIYLDIPILAAFKIDISNHVKFAINIGPYLSVGMGGKYELTNTGGHKNESHNPFKSYSSTAEMKDKDALLKRFDIGVQGGIGFEIWKHYLINASFQHGFMDPIKGGTLYAGDTEKHYPIGGILTVGYRF,not soluble
6,MGSDKIHHHHHHMRGSAVARDLTDDKAMVHGALSMLARGGAVDQAYAPDAVAEIAHPYGTCTGADITRFYGDLHRALPDANWRPEIFFAGHNHPDERMEGPRVAAQVGSFGHWQGTFTQPLLGIEPTGGVVHLRMCEVHHLNAAGQIAQSWILPDFLDLMDQAGQFPLPPMNGARGLWPGPRGGNGVRMGPPDVAGGNASMAQVLDMHNALNTHVGADVSGLTMAHWDPNFMYYAAAGIGICRGVEGFRRNHQIPFREAVPDRYSKGHFVRIADGRFALTGGRLYATHTGTYLGIPATGRQVHIDVMDFYHFHDQGLICQNWLPFDILKTAHQMGVDLLPALPS,not soluble
7,YFNLQFGANLDVYLTKKWSVGADLLLSFKTYQYKNTLLGYSELTMKENQLWLELPIVLKYTMGQKKLRYYLQAGGAVSMILSSNSNIVRKDAATQSNQAIGPDINTRDLRNMFNYSLVGGGGIRYKAGYGYLVLDVKYMYGLNNISDMDNKYSNDELIYKYGYIDNDFTLNSLMFSIGYYKSFYKPKKLPTYEK,not soluble
8,MKANRSIACLLLAALPTLASAHVAEKVETLHDQALAEIPGHRGLMLTVSFKPGQVSAPHVHPGSVFVYVLEGTVQTQLEGGSVETYTVGQSWYEPANVPHLLARNPDPMKPAKLLVWELLKEGDPILKPLERGAH,not soluble
9,MRIIEQDPWLRPYESVIESRLKYARKRETDLTGGRSGGLSDFANGHLYYGLHQDGDSWVIREFAPEATAVYLIGELSRWRRLPQFRFAPVDEAGSWELRLSCRLLPHGSRYRLFFEWPGGEGERIPAWCNRVEQDPETYLFYAQVWVPDTPYEMKHPHPNR,not soluble
10,MGSDKIHHHHHHCGVEEKTEVQLLKEMPKPKAMTIDPSLSQKEATEMVHAAQRFYAFWDTGKEELIPQTVTENFFDHTLPKGRPQGTEGLKFAAQNFRKIVPNIHCEIEDLLVVGDKVTARLSFTGTHNDKKIDFFAIDILHVKDGKITEDWHLEDNLTLKQQLGLIAEE,not soluble
11,MGSDKIHHHHHHLIKSIFNKLFNLRENNPIERPKSFSATDLGKPLAISPKNITQQESISANVVYVDLSALFYSLLFPARVNDAGGIANNLERRVMAEIEHALASPQVIAEKVLKLPSKVLELDRKLADPQFDIKALLALIERDPLLSVEVLKLCNSPAFKRSDRDITNLQQALVQLGREQLRKFVTTCLVREMLDIKPIYFRRFGAEIWRHSMQVAFLASELSDEDQDTAFLLGLLHDVGKLAIFKMLLDAFVQAEPGEQPNSGLFRQVMTTKSLTLSSLLAKHWQLPNTFETELDRLASVNSRPQAGLAAVVWRANVISEISMLHQAGQLSPEILANLLQQVNLEQTQFDGLHQKLLQF,not soluble
12,MATDHIRYDVLARDALRGVLRHVLTDVAQHGLPGEHHFFITFQSKGDGVKLSPRLLAQYPEEMTVVLQHQFWDLVVTEDRFEVGLSFGGIPERLVVPFASIKSFFDPSVKFGLQFEAADEVDETGEADDGTELVTAAPAPVALPTSSATTDSSAPSDDEPPRSGEGAEVVRLDRFRKKLEHHHHHH,soluble
13,MSLTTKYIFVTGGVVSSLGKGITAASLGRLLKNRGMKVTIQKFDPYINVDPGTMSPYQHGEVFVTDDGAETDLDLGHYERFIDINLNKNSNVTTGKIYSSVLKKERRGDYLGGTVQVIPHVTNEIKERVFRAGRETNADVVITEIGGTVGDIESLPFLEAIRQIKSDIGVDNVMYIHCTLIPYLAAAGEMKSKPTQHSVKELRSLGIQPNVIVVRTEKPVPEEMKEKIALFCDIRKDSVIEARDADTLYEVPLDLQAQNLDEIVCDHLNLSCQEADMTEWKSLVEKVKNLSGLVKIALVGKYVALPDAYLSVAEALRHAGYAFDADINIKWVDSEDVTAENVAEQLQGVDGILVPGGFGDRGIEGKIEAIRYAREQKIPFLGICLGMQLASIEFARNVLGLEGAHSAEINPDTPHPIIDLLPEQKDVEDMGGTLRLGLYPCKLKNGTLAQSAYNDQVIYERHRHRYEFNNQYREQMEAKGFMFSGTSPDGRLVEIVELGDHPFFIASQFHPEFVSRPTRPQPLFREFIQASLRKEGHHHHHH,soluble
14,MKLACKIYNTLRWADIYFYQRDGKGLTQTELRQLALDLRKQDDEYKQLYSQVVQQIADRYYEARQRFFEGLARFPKEKKPHKYYSLVYPQYGWKILQVREIRKGSKKNKKRLITLKLSNLGTFKVIIHRDFPLDKVKRVVVKLTRSERIYITFVVEDYEFPKLPNTGKVVAIDVGIEKLIVTSDGEYFPNLRPYEKALWKVKHLHRELSRKKFLSNNWFKAKVKLARAYEHLKNLRTDLYMKLGKWFAEHYDVVVMEDIHVKQLIGKSLRSLRRRLSDVAFSELRDLIKYQLEKYGKKLILVNPAYTSKTCARCGYVKEDLSLSDRVFVCSNCGWIADRDYNASLNILRGSGSERPLVWSSALYQYQHFGTGMAELLEHHHHHH,soluble
15,MNLTPGGNAPVPAQELRVRITSGGQVDASAFRLYADGKVQGDADMVFYGQPRNDDGTVSLVSEGQYSTFTVALNRLKPDVQKIAFTVTCDGGQTVSGLRNLSIDVEQGATGLVSGSVELSGRQEAALILGEFYRRNNDWKFRFVAQGFNGGLKPLAEHFGVNIADEPAPAAPTPPVVTPPPVETKISLSKVSLTKEKPAISLTKRDNFGEIRINLNWHRGSSKSGFAGMFGSKGIDLDLGAFVELQDGYKSVIQALGNAFGDYRDEPYVQLKGDDRTGDVSDGEWLHINGREWKHIREVLIYAFIYEGVPSWDKTDGVVTIHVPDQPPIETRLTEGENRRTLCAIARLVNENGAIKVERINQYFKGQDEMDRAFGWGFRWSAGSK,not soluble
16,MGVVRRGSDVTSHVSSVSGKSAPCLQHFSVIRSIGRGAFGKVCIVQERKTKKYFALKYMNKRRCIEKGVAANVIRELTLLSKMSHPFIVNLWYTFQDGDYMYMVSDLLLGGDLRYHLSQQGKFAEDRAKLYLCEICLAVEYLHEMKIVHRDIKPENILLDEQGHAHLTDLNLATQLEDDQLATSYSGTRPYMAPEIYATYLEIEDGYDSRVDWWALGVCFYEMLRGRTPFEFSSRTKPEEAYVAFRESSIPYPAHWPTDLIQFINSMLKFDKEKRLVGLEAIKKHSYTERIDFKSVFEKKPSPVFIPCKEGLNCDPMYELEERILVSTPIHRRRTNHNNSSGRSSSEPQNAALVEVSKAFIDFSRHNVKIEPNGFVKLN,not soluble
17,MAHHHHHHMNNSKENDSVSKLSFKNKNIKLIKVPKFVSNKWLQYNNKDIVGLLGCNNNNNNDSEITELYVQKDDSDNVKKLRCNKNNTVNTYILKQNVIKLKSTNKSVSNSAGTLNNKSNDYTNTNKGKNTMNNLSKDNSDKHKEFDYVVCADLIKTCDYTYSFLPTLDQDYSSILKERHYKTNVKKERFTIIETRNEENMDATHTLFKYYTSEDKLNNESKDKNMKNNKRLFTDNDNLNTVSHSTSKQKAKQSKKMHVFDLDKAKISIFKIFEREGQNGVPFSFFTKSFNIPANHIKGILDEIAIKGKRDTDKKTVYFLKNCIG,not soluble
18,MTTQTIDSAPHATWFVGASYGGTDDQMPRFLAEGIWENGYDDKLLEVVRSMRPGERIAIKSSYTRKHGLPFDSRGRAVSVMGIKAVGTITENLNDGKRVKVDWAKVEPVREWYFYTHRATIWRVLPGEWMNDALIAFAFDGKPQDVDRFRNEPFWRERYGTTSPEKQRFEWTDFYEAVAEKLLAHADDRTPLIEGIHEIASRVPGLTYLQDKFPDGTSGPLRDICPFTTMGTFNRSMTDANRKTLAGELAKLLGVTVPVPPSFEGIPVLNNQRSWFFAYADKRGAGDIDALWKVFVAASKMVDGDQLDTRDAFIRAYDEATQVWGVAWNLSTGLYWAHPWEFLTLDSQSRHYINKRLGLNVAISGQQGPCDGRAYLKLLDDLRSRFGEDGYPVHSFPDLSLASWMYKDPVDEPVPAGDIGTNAGAEQETEGEVREAFQVAAPIVPYSVEDILKDGCFLERAEIDRLLDRLRTKKNLILQGPPGTGKTWLAKRLAFALMGQKDDSKVRAVQFHPNLSYEDFVRGWRPTGEGKLSLADGVFMEAIKAASKDPSSKFVVVIEEINRGNPAQIFGELLTLLEAGKRTPNEALELCYPDADGKRRPVHIPENLYVVGTMNIADRSLALVDLALRRRFAFVGLEPRLGQVWRDWVVKECAVDPGLVADIERRIAELNDQIAADARLGKQFRIGHSYVTPAHRLEAGDTKKWFLQVVETEIGPLLDEYWFDAPDEAQKAIARLTQGWLEHHHHHH,soluble
19,MGSDKIHHHHHHMTAIVEPTWEERRTPEAAHEDDARSQYRKDYSRIIHSAALRRLQTKTQVLGLGDSDFYRTRLTHSLEVAQIGVGILLEIQRRFAGSNIEKYLPDERLLEAICLSHDYGHPPFGHGGERALNFAMREYGGFEGNAQTFRILSKLEKYSQNSGLNPTRRTLLGVLKYPTTYSNSMTNDFRRGTDIDKYPDAELKPPKCIYDCDLDVLDWVLKIFCSEDVTEFKKLDYKCKPLHKSLDCSLMETADDIAYTVHDLEDCIKLKLINREMWDAYIKSADYSEATRLEIEKWNQRIFSKEGNLVKQGISNMVYFFIHSVIQYEHEELSHPILKYGFKLGEEAARLRSAIQKIITNEVIKTHRVRVLESKGQRMIFSIFGELVRDPESFLPRETLDKYNKATGNLRMRVICDYVSGMTDEYATKTYQRFFTPKFGSVFDV,not soluble
